Measured values published in patent US20210009693A1 (MABSPACE BIOSCIENCES SUZHOU, published 2021).
Where a chain is given by its changes, count along the chain named. Where two headings read alike, the source gives them in different places. One block for each binder: values may come before it.

Assays:
[1] = target: T1, Human PD-L1/CD274 with C-Fc Tag (hPD-L1-Fc) (human, UniProt Q9NZQ7 19-238); assay: blocking ELISA on coated hPD-L1-Fc; blocked ligand: biotinylated hPD-1-N297A
T1 construct: range 19-238; ACRO Biosystem PD1-H5258, made in HEK293; also called human PD-L1-Fc; not shown: Fc fragment of human IgG1 at C-terminus
T1 sequence (Q9NZQ7 19-238 limits assumed): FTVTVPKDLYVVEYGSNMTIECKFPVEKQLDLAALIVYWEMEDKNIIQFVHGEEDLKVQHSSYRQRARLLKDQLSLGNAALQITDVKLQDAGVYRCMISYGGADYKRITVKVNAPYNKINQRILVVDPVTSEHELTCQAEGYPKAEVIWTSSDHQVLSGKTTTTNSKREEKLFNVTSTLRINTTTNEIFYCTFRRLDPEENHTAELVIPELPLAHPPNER
Method: High-binding clear polystyrene 96 well plates (Nunc) were coated with 100 μl/well of coating solution consisting of 1 μg/ml hPD-L1-Fc overnight at 4° C. Then the plates were washed once on an automatic plate washer using washing buffer (PBS+0.1% Tween 20 (Sigma)). 200 μl of blocking buffer (PBS+1% BSA+1% normal goat serum+0.05% Tween-20) was added to each well and incubated 2 hours at room temp. […] The plates were then washed 3 times using the method described above. […] After the plates were washed 3 times, 100 μl/well of a solution of 1:5000 diluted HRP conjugated Neutravidin antibody (Pierce) in dilution buffer was then added to each well of the plate. After that the ELISA plates were allowed to incubate for 60 min at RT, then the plates were washed 3 times with 250 μl/well washing buffer. Finally, 100 μl/well of TMB was added to each well and the reaction was terminated using 0.64M H₂SO₄. The plates were read on a Thermo Multiscan FC at 450 nM (see FIG. 18A to 18D).

[2] = target: hPD-L1 (antigen of the Biacore assay) (human, UniProt Q9NZQ7 19-238, limits assumed); assay: SPR (Biacore), antibody captured on anti-human Fc, antigen in flow
hPD-L1 (antigen of the Biacore assay), sequence (Q9NZQ7 19-238 limits assumed): as above
Method: A CM5 sensor chip was activated in each flow cell by 7-min injection (10 μl/min) of freshly prepared 1:1 50 mM N-hydroxysuccinimide (NHS): 200 mM 1-ethyl-3-(3-dimethylaminopropyl)-carbodiimide (EDC). Then anti-human Fc antibody (GE Healthcare) in a concentration of 10 μg/ml in 10 mM sodium acetate buffer PH 5.0 was injected onto the activated chip at 10 μl/min (HBS-EP running buffer: 10 mM HEPES, 150 mM NaCl, 3.4 mM EDTA, 0.005% surfactant P20, pH 7.4). The remaining active coupling sites were blocked by 7 min injection of 1M ethanolamine at 10 μl/min. The immobilization level of each flow cell is ˜9000RU. Antibodies were captured in FC2 by anti-human Fe IgG (GE Healthcare) to 200˜300RU. FC1 was used as the reference cell. Antigen was injected at varying concentrations after capture of antibody. The association time for antibody binding antigen is 180s. Surface Regeneration condition is 120s at 10 μl/min in Gly pH1.5. The signals with captured antibody subtracted from those without captured antibody were calculated with Biacore X100 evaluation software ver. 2.0 (Biacore).

[3] = target: T2, human PD-L1 expressed on cells (human, UniProt Q9NZQ7 19-290); assay: blocking FACS on HCC827 cells; blocked ligand: biotinylated hPD-1-N297A
T2 construct: whole, on cells; also called hPD-L1 expressed on HCC827; hPD-L1 on MC38/hPD-L1 cells
T2 sequence (Q9NZQ7 19-290): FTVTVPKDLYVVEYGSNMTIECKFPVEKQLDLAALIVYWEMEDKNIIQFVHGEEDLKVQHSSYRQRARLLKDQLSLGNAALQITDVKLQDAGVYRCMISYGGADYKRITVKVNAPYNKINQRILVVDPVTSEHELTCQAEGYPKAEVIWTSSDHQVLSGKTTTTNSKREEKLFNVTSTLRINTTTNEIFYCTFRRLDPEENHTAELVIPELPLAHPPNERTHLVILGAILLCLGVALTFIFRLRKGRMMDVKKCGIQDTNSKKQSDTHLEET
Method: (§1) Log phase IFN-γ stimulated (500U/ml for 2 days) HCC827 cells were collected and resuspended in blocking buffer (5% BSA+PBS). 2×10\hat{ }5 cells were added to each tube and then washed once with PBS (1500 rpm, 5 mins, RT). The 100 μl/tube serial diluted PD-L1 antibodies (see FIG. 8) with blocking buffer were added into corresponding tubes and incubate at 4° C. for 1 hr. […] After washing for three times with PBS, 100 μl/tube streptavidin-PE 1:200 (EBiosciences) in blocking buffer was added to each tube. The cells were incubated at 4° C. for 1 hr and then washed twice with PBS, followed by resuspending cells in 150 μl PBS for each sample. The cells were then transferred into FACS tube and the binding of the antibodies to the cells were detected with flow cytometry (ACEA Bioscience Novocyte).

[4] = target: T2, human PD-L1 expressed on cells; assay: FACS, IFN-gamma stimulated HCC827 cells
Method: Log phase IFN-γ stimulated (500U/ml for 2 days) HCC827 cells were collected and resuspended in blocking buffer (5% BSA+PBS). 2×10\hat{ }5 cells were added to each tube and then washed once with PBS (1500 rpm, 5 mins, RT). The 100 μl/tube serial diluted biotinylated PD-L1 antibodies with blocking buffer were added into corresponding tubes and incubate at 4° C. for 1 hr.

[5] = target: T2, human PD-L1 expressed on cells; assay: FACS, IFN-gamma stimulated HCC827 cells; remark: listed apart in the source
[6] = target: T2, human PD-L1 expressed on cells; assay: blocking FACS on HCC827 cells; blocked ligand: biotinylated hPD-1-N297A; remark: listed apart in the source
Method: as §1, with “RT).” for “RT). The 100 μl/tube serial diluted PD-L1 antibodies (see FIG. 8) with blocking buffer were added into corresponding tubes and incubate at 4° C. for 1 hr.”, “1:200” for “1:200 (EBiosciences)”, “Novocyte) (see FIGS. 20A and 20B).” for “Novocyte).”

- IC50 (read off the curve) [1]: ~0.06 µg/mL
- Kd [2]: 6.36 nM
- koff [2]: 0.000927 s⁻¹
- kon [2]: 150000 M⁻¹ s⁻¹
- IC50 (read off the curve) [3]: ~0.1 µg/mL
- EC50 (read off the curve) [4]: ~0.1 µg/mL
B1: 4B6-H3L3 (antibody, V domains shown)
VH: QVQLVQSGAEVVKPGASVKISCKASGYVFTDYYMNWVKQAPGQGLEWIGDINPNNGGTSYNQKFQGRATVTVDKSTRTAYMELSRLRSDDTAVYYCVKWGDGPFAYWGQGTLVTVSS
VL: DIQMTQSQSSLSASVGDRVTITCQASQNVGAAVAWYQQKPGKAPKLLIYSASNRYTGVPSRFSGSGSGTDFTLTISSMQPEDIATYFCQQYSNYPTFGSGTKLGIK
notes: Humanized; also called humanized 4B6 H3L3

- EC50 (read off the curve) [5]: ~0.04 µg/mL
- IC50 (read off the curve) [1]: ~0.03 µg/mL
- IC50 (read off the curve) [6]: ~0.02 µg/mL
B2: 4B6-H3L4 (antibody, V domains shown)
VH: B1 VH
VL: B1 VL with Q8P, R54L, M78L
notes: produced in 293 cells; light chain constant region not described; also called humanized 4B6 H3L4
